Reference: the domain aggregation screens of Martell et al. (2025)

Assay: soluble fraction after stress (log2 fold change); higher = more stays soluble; pooled small domains, quantitative proteomics
Details: stress: 50 degC
How it was run: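 The measure of aggregation propensity here is the base-two logarithm of the fold change in the soluble amount of each protein after stress. A higher value means more of that protein stays in solution. Stress was applied at 50°C to pooled libraries of small protein domains, read out by high-throughput quantitative proteomics.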

Sequence | soluble fraction (log2)
HMKININEASRYELMTIGGLDAGRADMLMQYRQKREISSADELKGINGFASYDTAKLQKSFEISP | -0.0475
HMKIRKAVIPAAGLGTRVLPASKSIPKEMLPIVDKPVIQYIVEEAVKAGITEILIITGRGKGAIEDHFDRS | -0.122
HMKISIDNPSVLLDKLATLFPDTSKNKLRKMLTEGRIYVNDNIEHRAKRELINGDTVKILDKTTSKE | 0.0915
HMKITAPLPGTITEIKVKVGDTVKNGDTVVVLEAMKMQNNIEAESNGTVTAIFVNKGDTVMEGDALMTI | 0.14
HMKITTKNYFKAIAEVGVENLPAALKKSHDLIEERTSKGADWSVYEHDAEVRRVFDLTFEKLFEFIDQ | -0.363
HMKKAITMGDIITVKELSEKIGIQVAEIIKKLMGLGILATINKELDYDTANVIASEFHIELERK | -0.00712
HMKKASLSTVEKKLMKQNYSNDTMENRLARVESYMFGTVFSSDDTQTRIDRISSAYNAQKSS | 0.142
HMKKDLATYAYEHIKQMVIDRELMPGERIQQEVLARELGISRTPLVTALNRLASENLVELEANKGFSVRRF | -0.0386
HMKKEETEAEELEEKFTSAQIKQAYGILNDPRYKQGNYSGAVNVINKIAPGLADHPDVKNALKRANEEL | 0.0375
HMKKGRIGSIIQYVREHPGVSSSEIITGLGLDISPATIRRDLTLLVAENKLSVEGQNKGTKYFVSPTYDMF | -0.323
HMKKIDVEVVRSQLIAWMADNGKSQAEVSKSMGISASALSMFIKGTYTGDNEQIGRKAAALMDLVHRQSA | 0.0121
HMKKILITGNSGYIGSHLSKMLENDYEVHGLDIRQPQHPVAKFYEQDINRPINIEEEYDAVIHLAALV | -0.196
HMKKILLGDVNLDGKVDVNDVTLLQRYIAGETEVITSKDALTATNFNKDGNIDVLDVTDIQTFIANSE | 0.0836
HMKKLTNKQIIFFAEKLAHHSDFASKYSKVGESYEEFAIRLEKELNTPQKVEFYSSYLEKVGFK | -2.14
HMKKPKTVLSEEQKEFIINQAQDGVSAYDIARILFPSVNVTNLSKEVIDVAEFIRDTDIKLLADSE | 0.0694
HMKKPRKTSRKSIENAAIFYLQRFSSSIENLRRVLMRRVYRSAQYHNTKPEEDAKIVDSIIYRLIETGVL | -0.0617
HMKKSRLHSVLEEIPGIGEKRRKILIKHFGTVEAIKKSSLEELARIKGMNRRAAQNVLEYLK | -0.0583
HMKKVIKIEENVSLQKLAALMSLKVTDVLMRLLSMGMSGVNINSTIDADTAKILASEFGWTVED | -0.743
HMKKVKVPNVVGMSLKEARDALSAVNIAVNQVAGSVEDKSVVTEQSLKAGDEVDEGSSLNLTTEYK | -0.156
HMKKYLTETEAAAYLNMPVEEIKAAITKGEIEQYVKTSSGYTISVEELDKFFGQKAYDTMTSNNS | 0.174
HMKLASIGDNIHTLRKNKGLTQSQLAGKLGVNVDTISNYEKGVSTPDFDIVEKLVNIFNVDAHSLLFK | 0.127
HMKLEKKWIEAVEKYRRYVLSTGIKHVQKPIEFENFRLGQWYADVRQSYRRGTLSKEKLLEIREINPDFPN | -0.276
HMKLFGTPGSPFARKVRIVLEEKRIPHEYIIERGSAPGSRVPQYNPLGKVPTLVLDDGRGLYDSPVIVEYL | -0.492
HMKLGYTVHGNVVTVKAVANGISLYNTIGQKVAESTDGQTVKAPAHGVYILSVQGKSGSRETAKIVI | -0.39
HMKLHQDLQIKVIDAANNKVEFIDTATGTSLATRTLDVNGVSKARGFEATLYGVVEDNDVFHIA | 0.158

Sequence | soluble fraction (log2)
HMKLIRIPFILTEGPDSQKITIDVDGDEEFRLGDVFEEDDKLWTVNQILVSGERKAKRSMAGEVMRISALR | -1.26
HMKLNEQSMQVIDRIVDRHRGRPGPVKLMLHDVQKELGYIPFEAMEKIAAASGVSADEVYGVVTFYTQFTT | -0.0825
HMKLNETIAEARKRKGLTQEQLAQKLYVTRQAVSRWERGEVVPGIDMLKLIAITLEEPIVHLL | -0.769
HMKLQIQNIEIDKKISELAEGVSAEKLPFLAKLIDRSKLLNDKGEINEDSVKAAIEEVVKAFPDFK | 0.081
HMKLRKINLIGIFGSKTAPSALVRLTNGRVLKVGLGELLDGGRVTAIGRSSLTYNKSGKSITLNMPI | -2.73
HMKLRYRTQEELLGVAREYRRRGLPLSVIVIDFYHWTKFGDWKFDPAYWPDPVGMVRELRDMGVEAAV | -0.203
HMKLSKKVTDFLAQMPSKSISPKMLANNLGLADDAGDYKHLLKTIAQLEESKAIEVTAAGNIALPQPE | 0.0358
HMKLSLKTQVKEYLLSYIRDKKLQPGDRLLTQRELAEMLHTSQKVAQMALNSLEEEGIIIRRLGSGSFLAR | -1.11
HMKLTKPQEVFIQELLKGSSQYEAYLKAYPSKKTWKRNSIDTEASKLFKNAKIKQRYEELLYNIREE | -0.167
HMKLTNNDFIRLKTFMYNNYGINLENKKTLIETRLAIVVKRLGFNDFKSYIDNLMRDKTGEQASIIVGKLT | -0.58
HMKLTPKQQQIYDFISSFADEHGYPPSVREIAQAVNLKSPATVHFHLKGLREAGYISQAEGKTRAITI | -0.117
HMKMDGESQRLLSLIKEQGGSLPIGDKSSPEAIYRLTQMSKKTFKMALGSLYKAKQVVLSPTEVRL | -0.69
HMKMNFNEEEQKLLSEANVLVETNKTYTDDEVKGFSNKIVEHIMTFSKTDIPKVKSKFDPILFKI | -0.244
HMKMTIEDLITQAKESNAAENYYEAFQLYSKAIDVLPNDPDLYSARGVVLFHLDRKEDSLIDMNKSVD | -0.2
HMKMVEIDYGKFLTMLDTGKVKSVEIENNRIAINPSSSKDKNIYITGRMDDPELVDRLKNAKVEFTKVIP | 0.261
HMKNAYDLKMLVKDNDGNIERNMKYYFFLANGSKVEGITDDNGYTKTITTIQPEKADLHLINDELI | -1.1
HMKNDIQLKHDVEEELQWDPAVDASRFAVQAKDGVVTLSGGVDTFADKHAAEEAIRRVAGVTALVIHVDV | -0.107
HMKNEFRVYPNPANKEIVTFNQTQDIEVYDTLGKLVLKAKNTNTLDTKSFHSGIYFIKTGSGLTRKLVV | 0.107
HMKNEQESIAQKLYEAALKNDFVTIQEIQSGGYRLRNDDLTHMRESGVQSNTLIAIQKIFGL | 0.398
HMKNEQIFIVRPDAEGTRLDQWLAAQMASSEEAPSRMQIQRWIKAGLVEGQGTLNPARRIEAGESYTVKPG | 0.0493
HMKNEYAMVIQVNGKLRGNMLVSADLEQKDIERMALDNEDIKRFISHENDVKKMIFVPKKLINIVT | -0.351
HMKNIFDWLKQINYHKQPADSFTEKDWELFNSYMVHRFMSMNREFIEVVNYVQEMPPQEKILIYNIYREF | -1.02
HMKNIINFIVKEDDNNKRVDMILANHDKSLSRTRVKNLILDSKLKINERIVQDPSIKTKLNDKIELEIVEP | 0.611
HMKNIINLVIDGELHGKRIDAVIAQKNDSLSRTRIKNLVINGNLSINDEIVSDPSKKIYKDDKVSLTIPLP | -0.058
HMKNIMRQWIELEPDQGKIRSKLYSLDRVVEETTNEVGMIKLLLEIDEKELNNLVSHNDIRLV | -0.21

Sequence | soluble fraction (log2)
HMKNIRKQAIEAIDRIKNGNPIVISKNAKLIFKNIAKEANVSPTELHREFRDVMLYVNSLKAP | -0.255
HMKNKVTVPKVEGMDKEEAIQALNEVGLGYKAVMQSSDSVAEGKVISQGTAAGKKVDKNTQIIITVSGG | 0.00222
HMKNLADNIVALRKKHGLSQEQFAEKIDVTRQAVSNWERRIATPDVETIDLIAKLFDTDLTALVNG | -0.0311
HMKNLKLVSNTDGIRIDSWLADEFEDYSRSYLRKLIDQDLVYVNGNKIKANYKLKKGDEISISIPEPE | 0.142
HMKNLTERQQQIIALISGNPLITRAEIASAIGFSVKTIERELSILSEIVSYVGSKKGGHWEIQT | -1.15
HMKNLTERQQRIIALISENPQTTRAEIAGAIGVATKTIERELTTLSNIVYYVGPKKGGHWEIIK | -0.865
HMKNLTEVEYSEFLESIAQDRVSKVQVDGLIIRGEMNDGQRFETVQPQVTDKALIDDMVNHRVDFSGARP | 0.0951
HMKNMSLGERIKEQRKSSGLSQEKVAEFVGVSRQAVTKWETGQSAPSTENLFKLAEIFGTTVDILLA | 0.000199
HMKNNAIAPDQVVSLLKNEVNYNDDGRIEILDNNKNIRYNSKGELLTIEERVNEFLDANPHFRK | -0.119
HMKNSMANVQARREKILSAVDQSEPVAVEGLAQRFNVSITTLRRDLKALSDMGQVKWHHGLVERT | -0.173
HMKNVADEVFEKMLNMIIEGDWKKGEMIPSENELREAFSVSRSTVRQAVQRLSALGIVRSRQGKGTYVEQV | -1.04
HMKNYYELLGVAREASQDQIKKAYRKLARKYHPDVSKEADAETRMQELNVAYDTLSDAEKKREYDFQLDHP | 0.00768
HMKPDDDMLLKILTKLFIQKQFVINSKDIFQYILKNTNRTYENIINIVNRLDTLSIEKKRQLTIPLIKEI | -0.457
HMKPEQIELTFSGTTAMRLDKFLAENQPGLSRAKLQAIISSGSVEVNGKVITKQAFKLDPGDLVKALIPE | 0.0295
HMKPGWEDIFRMNQIQLEDAVRTVNRDDTLAPTKKAYLIQNLLASRWIVGNQLQAQKDKTTE | -0.0813
HMKPGYVIQVNGTVTKIQSGLVYVKTPAAQYTLMRKYAPADAAVGDRVSLWINEEGMVIDVHGK | -0.0092
HMKPKDILLPNFTNLTLDEAKAKAEEVKLNLNVSEEKYDVQIEEGKIISQDPKYQPNYTVKEGSTVNVVVS | 0.161
HMKPLIIPLELMQRLSSDKQLEAGFNRFSKSKQHEFAAYIAAAKRVETKVKRLEKIIPLILSGEGLNDR | -1.36
HMKPLRPVHLEIQTHRLSPVGILRSSFRQAGKVMHSNHGRITGLNLEQLKLIQAAFAGEALPK | -0.0219
HMKPQIRRHEKITALVREHGFMSVEQLARELEVTPQTIRRDIGILSAENVLRRYHGGAALGD | -0.586
HMKPSNLTSDERTQLLAQLKTAMGSDQYNQLRRQVGEEKLLEYVLDNVPGIQEEILGNRAVQENIDLH | 0.23
HMKPSTVSVPDVSGDKLSTAKMIIRKSGLKVGDVQKIEDDNVGAGKVVRTNPSAGSKKREGSSVDIFVASA | 0.16
HMKPTVKGHFTRKESNVGGYADVRGWGVAGTPSMMANQSKDTRRFSTLIVPGRSVNVHPSPTKEAIIWWQS | -0.0091
HMKPTVKKLLAALPELRSGQPLHLSVATRKLRDAGLLGKNASSPTLFRNYVAQFELIPENQPNAVRYR | -0.551
HMKPVSEMDNMEWVREQYFQNMIYEIGEWVKDKKTGIVGEIVKRGTNYVTIVQEDFSLHKIWLEDLETTE | -0.325
